Laboratory results taken from patent US7534761B1, “Charged peptide-amphiphile solutions and self-assembled peptide nanofiber networks formed therefrom” (North Western University, priority 2002, dated 2009).
Square brackets hold non-standard residues; d marks the D form. Ends that are not written are not given here. * marks the point of attachment. Palmitoyl = CCCCCCCCCCCCCCCC(=O)*; pS = N[C@@H](COP(=O)(O)O)C(=O)O

Experiments:
[1] = Gelation / self assembly of peptide amphiphile solutions, TEM of bulk gels; format: physicochemical
Description: Synthesis of peptide amphiphile, SEQ ID NO:1, was synthesized with standard Fmoc chemistry on an Applied Biosystems […] automated peptide synthesizer. The peptide was grown from the C terminus to N terminus with the sequence CCCCGGGSS(P)DS(P)D, SEQ ID NO:1, and the N terminus was capped with a 16 carbon fatty acid. The synthesis of the peptide amphiphile, SED ID NO:1, was verified by ESI mass spectroscopy indicating correct molecular weight. […] To confirm the formation of fibers, transmission electron microscopy (TEM) images of these bulk gels were taken and are shown in FIG. 3. Fibers on the order of 5-10 nm in diameter can be seen, as well as globular micelles ranging from 10-15 nm in diameter.

[2] = system: MC3T3-E1 mouse calvarial osteoblasts; assay: Growth and differentiation of MC3T3-E1 osteoblasts on self assembled nanofibers coated on glass; format: cell-based
Description: Cell culture preparation includes treating glass coverslips overnight in 100% ethanol. […] of SEQ ID NO:1, was spin-coated at 1500 r.p.m. for 30 seconds onto the treated glass cover slips. Samples were dried under vacuum to promote self-assembly on the glass surface. Samples were then immersed in 10% iodine for 15 minutes to cross-link the assembled PA nanofibers. Cross-linked samples were thoroughly, but gently rinsed by immersion in water 3×. Rinsed slides were dried by vacuum desiccation and placed in a 24-well tissue culture well plate. MC3T3-E1 mouse calvarial osteoblasts were plated at 10,000 cells/coverslip in 1 mL of MEM-a culture medium containing 10% fetal bovine serum, 1% penicillin/streptomycin, 30 mM β-glycerolphosphate, and […] ascorbic acid. The medium was exchanged every 3 days.

[3] = Coassembly of negatively and positively charged peptide amphiphiles; format: physicochemical; conditions: 10 mg/mL, mixed with approximately 3 molar equivalents of SEQ ID NO:22
Source text: This example illustrates the self assembly of negatively charged peptide amphiphiles using positively charged peptide amphiphiles, coassembly, to induce nanofiber gel formation. […] Similar approaches may be applied using variations the charged molecules involved.

Row | Substance | gelation of solution ([1]; 1% and 0.1% solutions, HCl and Ca2+ addition) | globular micelle diameter (TEM) ([1]; bulk gels) | nanofiber diameter (TEM) ([1]; bulk gels) | cell adhesion and spreading on nanofiber-coated glass slides ([2]; MC3T3-E1, 10,000 cells/coverslip, iodine cross-linked nanofibers) | osteoblastic differentiation, mineral by Von Kossa staining ([2]; MC3T3-E1, 17 days of culture) | cell layer on self assembled peptide amphiphile coated glass ([2]; MC3T3-E1, after 12 days (FIG. 4B legend)) | result of coassembly [3]
1 | C16H31O-CCCCGGGSS(P)DS(P)D (Palmitoyl-CCCCGGGS[pS]D[pS]D; not fully specified (C-terminus); cysteine pairing not given here) [SEQ ID NO 1, peptide amphiphile: alkyl tail C16H31O, structural peptide CCCCGGG, functional peptide SS*DS*D] | found to gel | 10-15 nm | 5-10 nm | adhering and spreading | producing significant mineral | confluent layer | –
2 | SEQ ID NO:25: peptide amphiphiles having an SSDSD peptide sequence; negatively charged; possibly the SEQ ID NO:1 amphiphile (also: alkyl tail) | – | – | – | – | – | – | self-supporting PA nanofiber gel
